The target in the experiment is T1, mMED15-FLAG (Flag-tagged mouse Med15) (mouse, UniProt Q924H2 1-789).
T1 sequence: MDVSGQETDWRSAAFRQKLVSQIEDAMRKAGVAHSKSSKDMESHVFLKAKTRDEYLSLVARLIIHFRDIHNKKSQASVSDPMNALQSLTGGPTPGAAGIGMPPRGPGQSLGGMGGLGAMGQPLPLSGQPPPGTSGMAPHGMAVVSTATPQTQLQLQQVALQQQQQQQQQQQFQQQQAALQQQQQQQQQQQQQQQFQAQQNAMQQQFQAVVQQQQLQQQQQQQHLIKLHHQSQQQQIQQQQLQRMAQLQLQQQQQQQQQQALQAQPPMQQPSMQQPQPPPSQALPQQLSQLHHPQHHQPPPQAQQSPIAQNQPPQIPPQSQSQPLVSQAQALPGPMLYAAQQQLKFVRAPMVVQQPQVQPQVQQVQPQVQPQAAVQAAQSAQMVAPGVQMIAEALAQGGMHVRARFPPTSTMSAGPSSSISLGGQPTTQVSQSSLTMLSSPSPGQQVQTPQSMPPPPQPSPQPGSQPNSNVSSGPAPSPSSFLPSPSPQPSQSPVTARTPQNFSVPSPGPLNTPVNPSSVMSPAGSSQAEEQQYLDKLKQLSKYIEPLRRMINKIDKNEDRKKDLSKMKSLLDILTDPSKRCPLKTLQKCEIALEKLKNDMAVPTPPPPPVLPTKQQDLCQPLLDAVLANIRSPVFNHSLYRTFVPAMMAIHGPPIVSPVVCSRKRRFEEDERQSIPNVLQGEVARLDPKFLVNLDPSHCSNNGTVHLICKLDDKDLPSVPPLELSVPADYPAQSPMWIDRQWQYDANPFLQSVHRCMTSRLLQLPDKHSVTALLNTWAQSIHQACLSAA
Briefly: pull-down.

B1: HA-mNKX6.1 (HA-tagged full-length mouse Nkx6-1) (natural protein)
chain: MLAVGAMEGPRQSAFLLSSPPLAALHSMAEMKTPLYPAAYPPLPTGPPSSSSSSSSSSSPSPPLGSHNPGGLKPPAAGGLSSLGSPPQQLSAATPHGINDILSRPSMPVASGAALPSASPSGSSSSSSSSASATSASAAAAAAAAAAAAAASSPAGLLAGLPRFSSLSPPPPPPGLYFSPSAAAVAAVGRYPKPLAELPGRTPIFWPGVMQSPPWRDARLACTPHQGSILLDKDGKRKHTRPTFSGQQIFALEKTFEQTKYLAGPERARLAYSLGMTESQVKVWFQNRRTKWRKKHAAEMATAKKKQDSETERLKGTSENEEDDDDYNKPLDPNSDDEKITQLLKKHKSSGGSLLLHASEAEGSS
For B1, the binding result was “binds”.

The values above are taken from paper PMC11461855 (Nature Communications, 2024).
